Test [1] has as its target T1, full-length human CD137 on cells (Hut78/huCD137, HEK293 transfectants, JK-NFKB-CD137) (human, UniProt Q07011 24-255). As to the kind of experiment: cell-based or functional assay.
For test [2], the target named is T1, full-length human CD137 on cells …. Put plainly: cell-based or functional assay. This is another data set of the same source.
The target in test [3] is T2, human CD137 ECD-mIgG2a (human).
T2 construct: ECD 24-183 of huCD137 fused to mouse IgG2a Fc; also called huCD137-mIgG2a; huCD137
As to the kind of experiment: SPR, A-CEAxCD137 format. (In general: SPR reads the build-up and loss of mass on a sensor chip optically.)

Test [4] concerns the target T1, full-length human CD137 on cells …. Put plainly: flow cytometry on Hut78/huCD137 cells.
In test [5] the target is T2, human CD137 ECD-mIgG2a. Put plainly: SPR, human CD137 ECD-mIgG2a.
Test [6] has as its target T3, full-length human CEA on cells (MKN45, LOVO, L929/huCEA, CT26/CEA, CT26-OS8-CEA) (human, UniProt P06731 35-685).
T3 construct: also called CEACAM5; native CEA
T3 sequence: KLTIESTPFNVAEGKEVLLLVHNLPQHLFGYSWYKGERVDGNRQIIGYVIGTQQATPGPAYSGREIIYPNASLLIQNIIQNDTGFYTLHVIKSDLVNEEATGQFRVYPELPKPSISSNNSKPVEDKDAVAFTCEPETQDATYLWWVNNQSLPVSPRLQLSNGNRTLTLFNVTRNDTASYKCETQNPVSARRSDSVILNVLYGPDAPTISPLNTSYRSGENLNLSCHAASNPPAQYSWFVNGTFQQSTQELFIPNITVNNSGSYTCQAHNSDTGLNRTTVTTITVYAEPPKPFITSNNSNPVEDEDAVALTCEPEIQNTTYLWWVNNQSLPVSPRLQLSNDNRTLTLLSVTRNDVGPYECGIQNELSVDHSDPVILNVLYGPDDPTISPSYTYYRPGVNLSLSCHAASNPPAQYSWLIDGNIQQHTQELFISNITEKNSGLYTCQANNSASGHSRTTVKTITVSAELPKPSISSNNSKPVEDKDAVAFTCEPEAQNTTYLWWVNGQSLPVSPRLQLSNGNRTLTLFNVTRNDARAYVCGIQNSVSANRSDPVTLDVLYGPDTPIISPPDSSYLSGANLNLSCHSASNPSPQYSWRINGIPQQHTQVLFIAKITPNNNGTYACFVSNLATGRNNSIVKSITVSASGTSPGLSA
As to the kind of experiment: flow cytometry on CT26/CEA cells.

Test [7] addresses T1, full-length human CD137 on cells …. As to the kind of experiment: flow cytometry on Hut78/huCD137 cells. The source holds these as a separate data set.
Test [8] has as its target T2, human CD137 ECD-mIgG2a. As to the kind of experiment: SPR, Fc fusion VH.
The target of test [9] is T2, human CD137 ECD-mIgG2a. As to the kind of experiment: SPR, Fc-fusion VH captured.
Test [10] has as its target T1, full-length human CD137 on cells …. Put plainly: flow cytometry on Hut78/huCD137 cells. This is another data set of the same source. Background: Flow cytometry measures light scatter and fluorescence of single cells or particles in a stream.

Where two headings read alike, the source gives them in different places.

T2 sequence (chain, as listed by the source limits assumed): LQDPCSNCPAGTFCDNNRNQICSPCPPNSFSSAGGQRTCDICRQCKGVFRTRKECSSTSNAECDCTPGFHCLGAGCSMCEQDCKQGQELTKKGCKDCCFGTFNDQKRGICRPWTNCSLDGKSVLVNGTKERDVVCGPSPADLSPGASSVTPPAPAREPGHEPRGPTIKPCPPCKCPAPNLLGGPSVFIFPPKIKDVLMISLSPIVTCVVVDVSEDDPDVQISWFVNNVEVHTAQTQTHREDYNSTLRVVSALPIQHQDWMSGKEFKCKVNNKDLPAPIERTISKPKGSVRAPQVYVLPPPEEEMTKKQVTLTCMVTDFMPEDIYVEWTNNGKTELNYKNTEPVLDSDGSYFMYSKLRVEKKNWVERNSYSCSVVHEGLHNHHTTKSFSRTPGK
T1 sequence (Q07011 24-255 limits assumed): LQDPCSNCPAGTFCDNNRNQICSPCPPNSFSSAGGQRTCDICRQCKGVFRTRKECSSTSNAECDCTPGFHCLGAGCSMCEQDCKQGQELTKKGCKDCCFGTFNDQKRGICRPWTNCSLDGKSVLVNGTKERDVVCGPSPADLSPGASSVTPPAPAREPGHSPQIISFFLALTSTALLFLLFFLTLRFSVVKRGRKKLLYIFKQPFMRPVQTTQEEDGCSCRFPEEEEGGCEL

B1: BE-189 (Format A BGA-5623) (bispecific antibody, human IgG1, kappa)
heavy: QVQLVQSGAEVKKPGASVKVSCKASGYIFTSYYLHWVRQAPGQGLEWIGYINPQTGKTSYAQKFQGRVTMTRDTSTSTVYMELSSLRSEDTAVYYCAREYGNYNYPLDYWGQGTLVTVSSASTKGPSVFPLAPSSKSTSGGTAALGCLVKDYFPEPVTVSWNSGALTSGVHTFPAVLQSSGLYSLSSVVTVPSSSLGTQTYICNVNHKPSNTKVDKKVEPKSCDKTHTCPPCPAPPAAGPSVFLFPPKPKDTLMISRTPEVTCVVVDVSHEDPEVKFNWYVDGVEVHNAKTKPREEQYNSTYRVVSVLTVLHQDWLNGKEYKCKVSNKALAAPIEKTISKAKGQPREPQVYTLPPSREEMTKNQVSLTCLVKGFYPSDIAVEWESNGQPENNYKTTPPVLDSDGSFFLYSKLTVDKSRWQQGNVFSCSVMHEALHNHYTQKSLSLSPGKGGGGSEVQLLESGGGLVQPGGSLRLSCAASGFTVSAEDVGWVRQAPGKGLEWVSAILDKGGSTYYAESVKGRFTISRDNAKNTLYLQMSSLRAEDTAVYYCARIVYHAGGGVTFDTRGQGTQVTVSS
light: DIQMTQSPSSLSASVGDRVTITCRASENQYGYLAWYQQKPGKVPKLLIYNYKNLVEGVPSRFSGSGSGTDFTLTISSLQPEDVATYYCQHHLGTPYTFGQGTKVEIKRTVAAPSVFIFPPSDEQLKSGTASVVCLLNNFYPREAKVQWKVDNALQSGNSQESVTEQDSKDSTYSLSSTLTLSKADYEKHKVYACEVTHQGLSSPVTKSFNRGEC
notes: Module ratio 2:2, inert Fc
As for B1, the “Functional assay EC50 (PBMC cytokine release, in vitro CD137 activation)” value in [1] amounted to 0.31 µg/mL. In test [2], the “Functions EC50 (PBMC cytokine release)” value is 0.341 µg/mL. Besides, binding in test [3] was put at a Kd of 94.8 nM. This molecule had an EC50 in test [4] of 0.38 µg/mL.

B2: D-CD137/CEA (Format D: BGA-4712 VH fused to the N-terminus of the heavy chain of the anti-CEA antibody) (bispecific antibody, human IgG1, kappa)
heavy: EVQLLESGGGLVQPGGSLRLSCAASGFMLSAEDVGWVRQAPGKGLEWVSAILDFGGSTYYADSVKGRFTISRDNSKNTLYLQMNSLRAEDTAVYYCARVVYHAGGGVTFDYWGQGTLVTVSSSGGGGSQVQLVQSGAEVKKPGASVKVSCKASGYIFTSYYLHWVRQAPGQGLEWIGYINPQTGKTSYAQKFQGRVTMTRDTSTSTVYMELSSLRSEDTAVYYCAREYGNYNYPLDYWGQGTLVTVSSASTKGPSVFPLAPSSKSTSGGTAALGCLVKDYFPEPVTVSWNSGALTSGVHTFPAVLQSSGLYSLSSVVTVPSSSLGTQTYICNVNHKPSNTKVDKKVEPKSCDKTHTCPPCPAPPAAGPSVFLFPPKPKDTLMISRTPEVTCVVVDVSHEDPEVKFNWYVDGVEVHNAKTKPREEQYNSTYRVVSVLTVLHQDWLNGKEYKCKVSNKALAAPIEKTISKAKGQPREPQVYTLPPSREEMTKNQVSLTCLVKGFYPSDIAVEWESNGQPENNYKTTPPVLDSDGSFFLYSKLTVDKSRWQQGNVFSCSVMHEALHNHYTQKSLSLSPGK
light: DIQMTQSPSSLSASVGDRVTITCRASENQYGYLAWYQQKPGKVPKLLIYNYKNLVEGVPSRFSGSGSGTDFTLTISSLQPEDVATYYCQHHLGTPYTFGQGTKVEIKRTVAAPSVFIFPPSDEQLKSGTASVVCLLNNFYPREAKVQWKVDNALQSGNSQESVTEQDSKDSTYSLSSTLTLSKADYEKHKVYACEVTHQGLSSPVTKSFNRGEC
notes: Symmetric IgG-like molecule, inert Fc; also called D-CEAxCD137
For B2, in test [5], the affinity, expressed as Kd, was 78 nM. The EC50 in test [6] turned out to be 3.78 µg/mL; in test [7], 2.28 µg/mL.

B3: A-CD137/CEA (Format A: BGA-4712 VH fused to the C-terminus of the Fc of the anti-CEA antibody) (bispecific antibody, human IgG1, kappa)
heavy: QVQLVQSGAEVKKPGASVKVSCKASGYIFTSYYLHWVRQAPGQGLEWIGYINPQTGKTSYAQKFQGRVTMTRDTSTSTVYMELSSLRSEDTAVYYCAREYGNYNYPLDYWGQGTLVTVSSASTKGPSVFPLAPSSKSTSGGTAALGCLVKDYFPEPVTVSWNSGALTSGVHTFPAVLQSSGLYSLSSVVTVPSSSLGTQTYICNVNHKPSNTKVDKKVEPKSCDKTHTCPPCPAPPAAGPSVFLFPPKPKDTLMISRTPEVTCVVVDVSHEDPEVKFNWYVDGVEVHNAKTKPREEQYNSTYRVVSVLTVLHQDWLNGKEYKCKVSNKALAAPIEKTISKAKGQPREPQVYTLPPSREEMTKNQVSLTCLVKGFYPSDIAVEWESNGQPENNYKTTPPVLDSDGSFFLYSKLTVDKSRWQQGNVFSCSVMHEALHNHYTQKSLSLSPGKGGGGSEVQLLESGGGLVQPGGSLRLSCAASGFMLSAEDVGWVRQAPGKGLEWVSAILDFGGSTYYADSVKGRFTISRDNSKNTLYLQMNSLRAEDTAVYYCARVVYHAGGGVTFDYWGQGTLVTVSS
light: DIQMTQSPSSLSASVGDRVTITCRASENQYGYLAWYQQKPGKVPKLLIYNYKNLVEGVPSRFSGSGSGTDFTLTISSLQPEDVATYYCQHHLGTPYTFGQGTKVEIKRTVAAPSVFIFPPSDEQLKSGTASVVCLLNNFYPREAKVQWKVDNALQSGNSQESVTEQDSKDSTYSLSSTLTLSKADYEKHKVYACEVTHQGLSSPVTKSFNRGEC
notes: Symmetric IgG-like molecule, inert Fc; also called A-CEAxCD137; A-CEA/CD137
The molecule B3 came in with a Kd in test [5] of 360 nM. Besides, the results for the EC50 in test [6] and in [7] were 0.75 µg/mL and 0.57 µg/mL, respectively.

B4: Format A BGA-3386 (bispecific antibody, human IgG1, kappa)
heavy: QVQLVQSGAEVKKPGASVKVSCKASGYIFTSYYLHWVRQAPGQGLEWIGYINPQTGKTSYAQKFQGRVTMTRDTSTSTVYMELSSLRSEDTAVYYCAREYGNYNYPLDYWGQGTLVTVSSASTKGPSVFPLAPSSKSTSGGTAALGCLVKDYFPEPVTVSWNSGALTSGVHTFPAVLQSSGLYSLSSVVTVPSSSLGTQTYICNVNHKPSNTKVDKKVEPKSCDKTHTCPPCPAPPAAGPSVFLFPPKPKDTLMISRTPEVTCVVVDVSHEDPEVKFNWYVDGVEVHNAKTKPREEQYNSTYRVVSVLTVLHQDWLNGKEYKCKVSNKALAAPIEKTISKAKGQPREPQVYTLPPSREEMTKNQVSLTCLVKGFYPSDIAVEWESNGQPENNYKTTPPVLDSDGSFFLYSKLTVDKSRWQQGNVFSCSVMHEALHNHYTQKSLSLSPGKGGGGSEVQLLESGGGLVQPGGSLRLSCAASGFTVSAEDVGWVRQAPGKGLEWVSAILDKGGSTYYAESVKGRFTISRDNAKNTLYLQMSSLRAEDTAVYYCARIVYHAGGGVTFDTWGQGTLVTVSS
light: DIQMTQSPSSLSASVGDRVTITCRASENQYGYLAWYQQKPGKVPKLLIYNYKNLVEGVPSRFSGSGSGTDFTLTISSLQPEDVATYYCQHHLGTPYTFGQGTKVEIKRTVAAPSVFIFPPSDEQLKSGTASVVCLLNNFYPREAKVQWKVDNALQSGNSQESVTEQDSKDSTYSLSSTLTLSKADYEKHKVYACEVTHQGLSSPVTKSFNRGEC
With B4, the “Functions EC50 (PBMC cytokine release)” value in [2] came out at 0.0768 µg/mL. Binding in test [3] was characterised by a dissociation constant (Kd) of 21.4 nM. The response in test [4] was half-maximal at 0.21 µg/mL (EC50).

B5: BGA-4712-M3-mutFc (Fc fusion VH) (Fc fusion)
chain: EVQLLESGGGLVQPGGSLRLSCAASGFTLSAEDVGWVRQAPGKGLEWVSAILDFGGSTYYAESVKGRFTISRDNAKNTLYLQMSSLRAEDTAVYYCARVVYHAGGGVTFDYWGQGTLVTVSSGGGGSDKTHTCPPCPAPPAAGPSVFLFPPKPKDTLMISRTPEVTCVVVDVSHEDPEVKFNWYVDGVEVHNAKTKPREEQYNSTYRVVSVLTVLHQDWLNGKEYKCKVSNKALAAPIEKTISKAKGQPREPQVYTLPPSREEMTKNQVSLTCLVKGFYPSDIAVEWESNGQPENNYKTTPPVLDSDGSFFLYSKLTVDKSRWQQGNVFSCSVMHEALHNHYTQKSLSLSPGK
For the molecule B5, the Kd in test [8] and in [9] was 169 nM throughout. The midpoint of the response in [10], the EC50, lay at 2.37 µg/mL.

B6: BGA-7556-mutFc (Fc fusion VH) (Fc fusion)
chain: EVQLLESGGGLVQPGGSLRLSCAASGFTLSAEDVGWVRQAPGKGLEWVSAILDFGGSTYYAESVKGRFTISRDNAKNTLYLQMSSLRAEDTAVYYCARVVYHAGGGVTFDYRGQGTQVTVSSGGGGSDKTHTCPPCPAPPAAGPSVFLFPPKPKDTLMISRTPEVTCVVVDVSHEDPEVKFNWYVDGVEVHNAKTKPREEQYNSTYRVVSVLTVLHQDWLNGKEYKCKVSNKALAAPIEKTISKAKGQPREPQVYTLPPSREEMTKNQVSLTCLVKGFYPSDIAVEWESNGQPENNYKTTPPVLDSDGSFFLYSKLTVDKSRWQQGNVFSCSVMHEALHNHYTQKSLSLSPGK
Take B6: the Kd in [8] and in test [9] was 200 nM in each case. In [10], this molecule displayed an EC50 of 5.71 µg/mL.

By Kd is commonly meant the equilibrium constant for the complex coming apart. Lower therefore signals higher affinity. Usually EC50 stands for the midpoint of the concentration-response curve.

(Values after patent US20240190989A1 (BEIGENE SWITZERLAND, published 2024).)
